Source: US20040210042A1 (published 2004)
Ends that are not written are not given here.

Target: T1, polypeptide translated from the polynucleotide of SEQ ID NO: 62 (human, UniProt Q05513 356-592)
T1 construct: retested as a pGBKT7 fusion in yeast AH109
T1 sequence: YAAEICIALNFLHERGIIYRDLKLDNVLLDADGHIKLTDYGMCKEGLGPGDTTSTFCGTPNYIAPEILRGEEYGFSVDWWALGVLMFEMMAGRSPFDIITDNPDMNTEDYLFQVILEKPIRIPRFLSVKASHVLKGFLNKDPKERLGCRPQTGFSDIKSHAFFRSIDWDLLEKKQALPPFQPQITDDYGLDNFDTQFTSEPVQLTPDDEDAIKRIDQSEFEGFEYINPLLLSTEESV
Assay: yeast two-hybrid screen, LexA system, histidine and LacZ reporters, human kidney library
Text: Then, the Human kidney […] LexA library (manufactured by Clontech Co., Ltd.) was introduced to the above-described strain and 10⁶ colonies were screened. At the first screening, a histidine-deficient medium was used and about 200 colonies were selected based on the expression of a histidine gene, which was a reporter of the interaction. At the second screening, 31 colonies were obtained based on the expression of LacZ, which was another reporter of the interaction. Finally, 31 clones each of which had been confirmed to surely have two kinds of reporter activities were selected. The above procedures were carried out on the basis of protocols of the yeast two-hybrid method from Invitrogen Co., Ltd. and Clontech Co., Ltd.
The library vectors were recovered from the yeast colonies selected as described above, and the nucleotide sequences were analyzed using the DNA sequencer (the same as above). The nucleotide sequences are shown in SEQ ID NOS: 33 to 63 in the Sequence Listing.

B1: cytoplasmic domain of RAGE (receptor for advanced glycation endproduct) (receptor, UniProt Q15109 364-404, looked up)
chain: QRRQRRGEERKAPENQEEEEERAELNQSEEPEAGESSTGGP
modifications: not fully specified
notes: domain: cytoplasmic domain; also called RAGECD; RAGECD fragments
binding result: binds
